Results taken from patent EP4806913A1 (Vaxcell-Bio Co., Ltd., dated 2025).
Blank lines part the entries; values can stand above or below the binder they belong to.

Molecular target: T1, recombinant EphA2 protein (R&D systems) (human, UniProt P29317 25-534, limits assumed)
T1 construct: Bought protein coated on the ELISA plate at 1 ug/mL; also called hEphA2; human antigen EphA2
Test: ELISA: recombinant EphA2 coated at 1 ug/mL, monobody-amh diluted twofold from 500 nM, detected with HRP anti-c-Myc antibody, OD 450 nm

T1 sequence (P29317 25-534 limits assumed): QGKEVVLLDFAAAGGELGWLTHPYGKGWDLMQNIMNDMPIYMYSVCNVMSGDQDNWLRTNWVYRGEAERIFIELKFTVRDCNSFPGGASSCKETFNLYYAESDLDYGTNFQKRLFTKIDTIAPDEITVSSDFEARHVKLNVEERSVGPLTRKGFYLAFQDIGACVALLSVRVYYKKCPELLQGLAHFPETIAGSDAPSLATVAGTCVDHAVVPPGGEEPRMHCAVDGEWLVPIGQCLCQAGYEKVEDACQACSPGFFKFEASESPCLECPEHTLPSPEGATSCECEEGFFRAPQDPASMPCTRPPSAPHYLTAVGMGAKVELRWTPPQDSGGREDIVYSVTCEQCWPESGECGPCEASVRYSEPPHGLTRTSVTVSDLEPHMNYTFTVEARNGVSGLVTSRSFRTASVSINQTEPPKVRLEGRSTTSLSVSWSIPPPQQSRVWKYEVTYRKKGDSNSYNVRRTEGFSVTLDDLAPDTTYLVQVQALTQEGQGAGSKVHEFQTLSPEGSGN

binding result: binds
B1: hpE1-amh (hydrophilic E1 monobody with C-terminal AviTag-Myc-6xHis tag) (designed binder)
chain: SSDSPRNLEVTNATPNSLTISWYYPFCAFYYRITYGETGGNSPSQEFTVPRPSDTATISGLKPGQDYTITVYAVTCLGSYSRPISINYRTEIDKPSQ
notes: Expressed in E. coli BL21(DE3) from pETamh and purified by IMAC and size exclusion; The gene was cloned at an NdeI site that includes the ATG start codon; also called hpE1 monobody; hydrophilic monobody(hpE1); not shown: amh tag (AviTag-Myc-6xHis) of the pETamh vector linked to the C-terminus

binding result: binds
B2: E1-amh (E1 monobody with C-terminal AviTag-Myc-6xHis tag) (designed binder)
chain: VSDVPRDLEVVAATPTSLLISWYYPFCAFYYRITYGETGGNSPVQEFTVPRPSDTATISGLKPGVDYTITVYAVTCLGSYSRPISINYRT
notes: Expressed in E. coli BL21(DE3) from pETamh and purified by IMAC and size exclusion; also called non-hydrophilic monobody(E1); E1 monomer; not shown: amh tag (AviTag-Myc-6xHis) of the pETamh vector linked to the C-terminus
